From US12344663B2, “Anti-C3 antibodies and antigen-binding fragments thereof and their uses for treating eye or ocular diseases” (CDR-Life AG, priority 2021, dated 2025)
Positions count from the first letter of the chain named.

What was measured:
[1] = Storage stability at 150 mg/ml, chemical degradation by IEX-HPLC; type: physicochemical
Protocol: (§1) Clone I, clone II and clone III are tested for storage stability. Samples are concentrated to 150 mg/ml (Vivaspin20 centrifugal device, 5 kDa MWCO at 3800×g) and stored at 25° C. and 40° C. for up to 4 weeks. Samples are analyzed for oligomerization (SE-HPLC) and chemical degradation (IEX-HPLC). The starting monomeric purity as determined by SE-HPLC was 99.96% for each clone. The starting charge purity, as determined by IEX-HPLC was 98.07%, 97.16% and 96.76%, respectively for clone I, II and III.

[2] = Viscosity at high concentrations, cone-plate-rheometer; type: physicochemical; settings: 20° C., shear-rate 1000 s^−1
Protocol: Viscosity measurements are performed with the samples prepared for the storage stability study. In addition to the fully formulated samples (10 mM His pH 5.5, 275 mM sucrose, 0.02% w/v Polysorbate20), viscosity of each candidate is also measured in a minimal formulation (10 mM histidine pH 5.5). This is performed to evaluate the drug substance processability (e.g., filtration, pumping, diafiltration, etc.) of the candidates up to 125% of the final drug product concentration of 150 mg/ml.
Viscosity is measured at 20° C. at a shear-rate of 1000 s^−1 using a cone-plate-rheometer. Briefly, a stepwise increase of the shear rate up to 1,000 s^−1 is done collecting 100 data points, followed by a further increase of the shear rate up to 2000 s^−1, collecting another 10 data points. Finally, a stepwise decrease of the shear rate down to starting rate is done. Good drug product handling properties for filling and syringeability have been observed for all candidates

[3] = molecular target: T1, human C3b (Homo sapiens, UniProt P01024); experiment: SPR (Biacore T100) binding to human C3b
T1 construct: C3b is derived from native C3 and is the larger of two elements formed by the cleavage of C3
T1 sequence (P01024 23-667 limits assumed): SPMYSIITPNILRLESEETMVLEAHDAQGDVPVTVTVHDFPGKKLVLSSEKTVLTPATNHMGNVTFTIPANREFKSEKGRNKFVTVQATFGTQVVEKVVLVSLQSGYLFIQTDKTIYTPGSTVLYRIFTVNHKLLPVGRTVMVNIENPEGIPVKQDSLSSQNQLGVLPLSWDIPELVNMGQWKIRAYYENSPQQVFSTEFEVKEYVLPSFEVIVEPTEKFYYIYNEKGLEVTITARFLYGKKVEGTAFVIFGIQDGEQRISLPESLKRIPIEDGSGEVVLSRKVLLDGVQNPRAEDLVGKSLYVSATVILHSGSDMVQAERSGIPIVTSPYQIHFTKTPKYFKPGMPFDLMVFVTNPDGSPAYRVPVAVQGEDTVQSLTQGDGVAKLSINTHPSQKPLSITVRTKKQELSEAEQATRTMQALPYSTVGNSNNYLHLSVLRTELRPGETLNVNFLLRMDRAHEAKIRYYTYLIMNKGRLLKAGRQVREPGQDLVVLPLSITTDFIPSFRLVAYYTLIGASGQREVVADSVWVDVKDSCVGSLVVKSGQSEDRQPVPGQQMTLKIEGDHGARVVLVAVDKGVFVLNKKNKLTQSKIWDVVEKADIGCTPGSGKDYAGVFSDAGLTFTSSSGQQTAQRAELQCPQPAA
T1 sequence (P01024 749-1663 limits assumed): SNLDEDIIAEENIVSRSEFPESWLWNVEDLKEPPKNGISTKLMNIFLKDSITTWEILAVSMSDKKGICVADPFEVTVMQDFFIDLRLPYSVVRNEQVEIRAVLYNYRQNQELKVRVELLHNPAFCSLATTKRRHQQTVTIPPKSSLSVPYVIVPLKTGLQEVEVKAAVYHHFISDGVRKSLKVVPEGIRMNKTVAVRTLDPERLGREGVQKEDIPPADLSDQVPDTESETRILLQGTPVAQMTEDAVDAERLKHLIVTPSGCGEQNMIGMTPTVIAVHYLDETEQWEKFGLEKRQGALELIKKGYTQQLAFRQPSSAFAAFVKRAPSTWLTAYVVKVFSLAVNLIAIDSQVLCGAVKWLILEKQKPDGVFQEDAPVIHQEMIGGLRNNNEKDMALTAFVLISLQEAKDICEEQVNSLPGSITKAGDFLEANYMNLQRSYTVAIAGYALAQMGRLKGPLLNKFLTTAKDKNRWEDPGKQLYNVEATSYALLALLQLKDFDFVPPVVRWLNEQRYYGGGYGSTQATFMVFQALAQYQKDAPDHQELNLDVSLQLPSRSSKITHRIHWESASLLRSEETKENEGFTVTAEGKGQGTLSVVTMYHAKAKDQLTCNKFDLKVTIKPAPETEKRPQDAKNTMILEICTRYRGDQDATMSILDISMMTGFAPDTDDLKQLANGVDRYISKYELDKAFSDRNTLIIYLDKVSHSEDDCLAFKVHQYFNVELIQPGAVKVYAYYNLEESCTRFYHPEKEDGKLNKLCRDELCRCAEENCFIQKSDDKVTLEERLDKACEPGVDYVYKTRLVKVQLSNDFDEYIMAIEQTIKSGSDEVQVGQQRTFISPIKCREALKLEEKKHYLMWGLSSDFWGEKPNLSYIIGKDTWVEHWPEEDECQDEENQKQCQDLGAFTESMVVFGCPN
Protocol: (§2) The kinetic parameters of the candidates are determined using a surface plasmon resonance (SPR) and Biacore T100 device. C3 and different variants thereof (Table 19) are immobilized as a ligand on a HC30M SPR sensor chip (XanTec bionanalytics, Germany) using EDC/[…] linking chemistry. Five increasing concentrations of each molecule (analyte) are consecutively injected using the single cycle kinetics (SCK) mode to determine the kinetic parameters. Regeneration between the candidates is done with 10 mM glycine*HCl, 2 M NaCl, pH 3.5. The data is fitted to a 1:1 Langmuir binding model and the kinetic parameters of on-rate (ka), off-rate (kd), and affinity […] were determined.

[4] = molecular target: cyno C3; experiment: SPR (Biacore T100) binding to cyno C3; set-up: species or system cynomolgus (Macaca fascicularis)
Protocol: as §2

[5] = molecular target: T2, human C3 P314L (Homo sapiens, UniProt P01024, P314L); experiment: SPR (Biacore T100) binding to C3 SNP1 P314L
T2 construct: 6×His (N); made in house; host or cells: CHO (ExpiFectamine CHO Expression Kit)
T2 sequence (P01024 23-1663 P314L): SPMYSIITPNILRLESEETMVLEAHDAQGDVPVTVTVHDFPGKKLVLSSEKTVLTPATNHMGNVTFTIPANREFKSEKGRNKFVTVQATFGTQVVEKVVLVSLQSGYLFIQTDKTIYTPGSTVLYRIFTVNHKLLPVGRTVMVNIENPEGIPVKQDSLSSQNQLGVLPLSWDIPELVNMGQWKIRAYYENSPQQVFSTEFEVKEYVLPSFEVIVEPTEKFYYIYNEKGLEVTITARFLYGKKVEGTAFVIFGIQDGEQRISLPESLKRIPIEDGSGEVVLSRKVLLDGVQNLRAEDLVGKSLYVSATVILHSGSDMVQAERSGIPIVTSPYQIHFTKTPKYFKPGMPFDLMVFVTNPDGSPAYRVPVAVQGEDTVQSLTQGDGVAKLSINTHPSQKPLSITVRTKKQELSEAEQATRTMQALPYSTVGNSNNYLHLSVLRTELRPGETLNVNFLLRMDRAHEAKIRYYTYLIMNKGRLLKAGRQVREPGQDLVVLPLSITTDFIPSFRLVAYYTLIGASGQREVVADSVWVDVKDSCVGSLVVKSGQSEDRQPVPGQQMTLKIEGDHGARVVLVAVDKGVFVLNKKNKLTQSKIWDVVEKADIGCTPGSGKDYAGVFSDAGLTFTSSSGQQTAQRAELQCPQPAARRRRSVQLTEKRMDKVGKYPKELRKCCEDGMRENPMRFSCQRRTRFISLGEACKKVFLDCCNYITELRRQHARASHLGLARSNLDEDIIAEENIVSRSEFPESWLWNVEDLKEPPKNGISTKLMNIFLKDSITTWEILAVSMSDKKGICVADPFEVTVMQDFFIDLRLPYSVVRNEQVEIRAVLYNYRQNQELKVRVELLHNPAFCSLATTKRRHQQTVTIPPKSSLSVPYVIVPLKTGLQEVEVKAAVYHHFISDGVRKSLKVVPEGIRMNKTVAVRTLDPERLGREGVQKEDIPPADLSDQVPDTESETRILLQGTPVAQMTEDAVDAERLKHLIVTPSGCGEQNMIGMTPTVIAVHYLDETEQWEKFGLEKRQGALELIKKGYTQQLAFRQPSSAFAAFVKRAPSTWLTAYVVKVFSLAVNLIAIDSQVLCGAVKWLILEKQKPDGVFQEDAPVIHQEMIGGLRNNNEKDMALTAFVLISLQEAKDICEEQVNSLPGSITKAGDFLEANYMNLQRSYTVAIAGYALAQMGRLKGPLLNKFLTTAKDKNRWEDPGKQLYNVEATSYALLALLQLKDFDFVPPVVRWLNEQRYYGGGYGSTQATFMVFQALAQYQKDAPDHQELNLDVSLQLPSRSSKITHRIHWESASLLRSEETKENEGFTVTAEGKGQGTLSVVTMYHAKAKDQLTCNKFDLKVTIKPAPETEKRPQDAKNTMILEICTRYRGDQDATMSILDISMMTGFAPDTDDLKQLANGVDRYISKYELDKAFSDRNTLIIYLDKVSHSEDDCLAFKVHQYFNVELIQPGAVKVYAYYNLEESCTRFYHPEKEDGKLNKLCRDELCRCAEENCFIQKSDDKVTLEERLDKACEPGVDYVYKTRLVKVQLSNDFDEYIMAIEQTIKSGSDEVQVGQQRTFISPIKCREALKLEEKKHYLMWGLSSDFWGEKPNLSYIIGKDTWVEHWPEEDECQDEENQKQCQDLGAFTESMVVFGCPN
Protocol: as §2
Single nucleotide polymorphism (SNP) in C3 has been observed across the population and certain SNPs were identified in genome-wide association studies (GWAS) to correlate with an increased risk to develop AMD. […] Very rare variants, which occur in less that 2.5% of the population include K155Q, R735W, S1619W, K65Q and R161W.
(§3) Proteins are expressed with N-terminal 6×His tag and purified using a HisTrap Excel HP column (GE Healthcare), followed by a size-exclusion chromatography step (SUPERDEX®20010/300GL; GE Healthcare).

[6] = molecular target: human C3 (Homo sapiens, UniProt P01024); experiment: SPR (Biacore T100) binding to human C3; settings: for Binding affinity to C3 and C3b compared to parental molecule Clone IV: in words
Chain of human C3 (P01024 23-1663): as the sequence (P01024 23-1663 P314L) above, with L292P counted along it
Protocol: as §2

[7] = Storage stability at 150 mg/ml, oligomerization by SE-HPLC; type: physicochemical; settings: decrease in monomeric content versus start
Protocol: as §1

[8] = molecular target: T3, recombinant C3 (wild-type human C3) (Homo sapiens, UniProt P01024); experiment: SPR (Biacore T100) binding to recombinant C3
T3 construct: 6×His (N); made in house; host or cells: CHO (ExpiFectamine CHO Expression Kit)
T3 sequence (P01024 23-1663): as the sequence (P01024 23-1663 P314L) above, with L292P counted along it
Protocol: as §2, §3

[9] = molecular target: T4, human C3 R102G (Homo sapiens, UniProt P01024, R102G); experiment: SPR (Biacore T100) binding to C3 SNP2 R102G
T4 construct: 6×His (N); made in house; host or cells: CHO (ExpiFectamine CHO Expression Kit)
T4 sequence (P01024 23-1663 R102G): as the sequence (P01024 23-1663 P314L) above, with R80G, L292P counted along it
Protocol: as §2
Single nucleotide polymorphism (SNP) in C3 has been observed across the population and certain SNPs were identified in genome-wide association studies (GWAS) to correlate with an increased risk to develop AMD. Common SNP variants include P314L, which occurs in approximately 23.3% of population, and R102G, which has been reported to occur in approximately 26-29% of population. Very rare variants, which occur in less that 2.5% of the population include K155Q, R735W, S1619W, K65Q and R161W.
The inventors therefore measured the binding affinity of the scFv of the invention to the most commonly occurring C3 forms, i.e., R102G and P314L. Wild-type human C3, human C3 P314L and human C3 R102G are expressed in the CHO cell line using the ExpiFectamine CHO Expression Kit (Thermo Fisher Scientific). Proteins are expressed with N-terminal 6×His tag and purified using a HisTrap Excel HP column (GE Healthcare), followed by a size-exclusion chromatography step (SUPERDEX®20010/300GL; GE Healthcare).

[10] = system: complement pathways; experiment: Complement inhibition assays, comparison with parental Clone IV; type: biochemical, human; settings: in words
From the text: To identify antibodies that block all 3 complement pathways, antibodies are screened using an enzyme immunoassay for the qualitative determination of functional classical, lectin and alternative complement pathways in human serum using the WEISLAB® Complement system Screen (Svar Life Science AB, Malmö, Sweden).

[11] = Concentration-dependent monomeric stability study at 37° C.; type: physicochemical; settings: for Monomeric purity/content loss after two weeks incubation at 37° C.: >100 mg/mL protein concentration; for Monomeric content after 2 weeks at 37° C. / Monomeric content at start: Clone XI 152 mg/mL, Clone X 100 mg/mL
Protocol: The stability of Clone VI's heavy chain framework was explored by introducing framework substitutions, thereby creating inter alia Clone X (SEQ ID NO: 38). Clone X and its disulfide bond stabilized variant Clone XI (SEQ ID NO: 39) were compared in a stability study at 37° C. and >100 mg/mL protein concentration.

B1: Clone III: humanized anti-C3 scFv, VH SEQ ID NO: 24, VL SEQ ID NO: 25; scFv SEQ ID NO: 30 or 31 (protein)
scFv: MQLVLTQSPSASASLGASVKLTCTLSSAHKTYTIDWYQQQPEKCPRYLMQLKSEGSYTKGSGIPDRFSGSSSGAERYLTISSLQSEDEADYYCGTEGVGGYVFGGGTKLTVLGGGGGSGGGGSGGGGSGGGGSQVQLVESGGGSVQPGRSLRLSCAASGFTFSNYAMNWVRQAPGKGLEWVAIINVGGGTNYADSVKGRFTISRDNSKNTLYLQMNSLRAEDTASYYCARAVGYHHARLDPWGCGTSVTVSS
Starting charge purity (IEX-HPLC) ([1]; before storage): 96.76%
Storage stability, IEX 4 weeks at 25° C. [D %] ([1]; decrease versus start): 0.3 D %
Storage stability, IEX 4 weeks at 40° C. [D %] ([1]; decrease versus start): 3.6 D %
Viscosity [mPa * s] Fully formulated at 150 g/L ([2]; 10 mM His pH 5.5, 275 mM sucrose, 0.02% w/v Polysorbate20): 3.3 mPa * s
Viscosity [mPa * s] Minimal buffer at 185 g/L ([2]; 10 mM His pH 5.5): 3.2 mPa * s
kd C3b ([3]; off-rate): 3.1e-05 s⁻¹
ka C3b ([3]; on-rate): 250000 M⁻¹ s⁻¹
kd cyno C3 ([4]; off-rate): 4.3e-05 s⁻¹
ka cyno C3 ([4]; on-rate): 200000 M⁻¹ s⁻¹
kd C3 SNP1 P314L ([5]; off-rate): 3.2e-05 s⁻¹
ka C3 SNP1 P314L ([5]; on-rate): 250000 M⁻¹ s⁻¹
kd C3 ([6]; off-rate): 3.6e-05 s⁻¹
ka C3 ([6]; on-rate): 240000 M⁻¹ s⁻¹
Storage stability, SEC 4 weeks at 25° C. [D %] [7]: 0.10 D %
Storage stability, SEC 4 weeks at 40° C. [D %] [7]: 0.84 D %
kd recombinant C3 ([8]; off-rate): 3.5e-05 s⁻¹
ka recombinant C3 ([8]; on-rate): 270000 M⁻¹ s⁻¹
kd C3 SNP2 R102G ([9]; off-rate): 3.2e-05 s⁻¹
ka C3 SNP2 R102G ([9]; on-rate): 280000 M⁻¹ s⁻¹

B2: Compound A3 Fab: NGM621 surrogate in a Fab format (antibody, V domains shown)
VH: QVQLVQSGAEVKKPGASVKVSCKASGYTFTDFYMDWVRQAPGQRLEWMGYIYPHNGGTTYNQQFTGRVTITVDKSASTAYMELSSLRSEDTAVYYCARRGGFDFDYWGQGTLVTVSS
VL: DIQMTQSPSSLSASVGDRVTITCKASENVDTYVSWYQQKPGKAPKLLIYGASNRYTGVPSRFSGSGSGTDFTFTISSLQPEDIATYHCGQSHSYPLTFGQGTKLEIKR
Kd ([3]; Table 19, SPR, read-out: Affinity human C3b): > 34 nM

B3: Clone V: reformatted and humanized scFv variant of Clone IV, SEQ ID NO: 33 (protein)
scFv: MQLVLTQSPSASASLGASVKLTCTLSSAHKTYTIDWYQQQPEKGPRYLMQLKSDGSYTKGTGVPDRFSGSSSGAERYLTISSLQSEDEADYYCGTDYGGGYVFGGGTKLTVLGGGGGSGGGGSGGGGSGGGGSQVQVVESGGGSVQPGRSLRLSCAASGFSLYNYAMNWVRQAPGKGLEWIGIINTDGNTNYASWAKGRFTISTDNSKNTLYLQMNSLRAEDTASYYCPRAVGYHHHALDPWGQGTSVTVSS
modifications: ScFv
Complement inhibition activity compared to parental molecule Clone IV [10]: retains its ability to inhibit the classical and alternative complement pathways
Binding affinity to C3 and C3b compared to parental molecule Clone IV ([6]; C3 and C3b): lower binding affinity

B4: Clone X: Clone VI with heavy chain framework substitutions, SEQ ID NO: 38 (protein)
scFv: B3 scFv with A156T, A157V, L211V, P229A
modifications: ScFv
Monomeric purity/content loss after two weeks incubation at 37° C. [11]: 60.4%
Monomeric content after 2 weeks at 37° C. [11]: 39.3%
Monomeric content at start [11]: 99.7%

B5: Clone XI: disulfide bond stabilized variant of Clone X, SEQ ID NO: 39 (protein)
scFv: B3 scFv with G44C, A156T, A157V, L211V, P229A, Q244C
modifications: ScFv
Monomeric purity/content loss after two weeks incubation at 37° C. [11]: 3.3%
Monomeric content after 2 weeks at 37° C. [11]: 96.5%
Monomeric content at start [11]: 99.8%

B6: Clone VII: affinity maturation hit scFv, SEQ ID NO: 35 (protein)
scFv: MQLVLTQSPSASASLGASVKLTCTLSSAHKTYTIDWYQQQPEKGPRYLMQLKSEGSYTKGTGVPDRFSGSSSGAERYLTISSLQSEDSAVYYCGTEGVGGYVFGCGTKLTVLGGGGGSGGGGSGGGGSGGGGSQVQVVESGGGSVQPGRSLRLSCAVSGFSLYNYAMNWVRQAPGKCLEWIGIINVGGGTNYASWAKGRFTISTDNSKNTVYLQMNSLRAEDTASYYCARAVGYHHHALDPWGQGTSVTVSS
modifications: ScFv
Complement inhibition activity compared to parental molecule Clone IV [10]: comparable
Binding affinity to C3 and C3b compared to parental molecule Clone IV ([6]; C3 and C3b): comparable binding affinity

B7: Clone VIII: affinity maturation hit scFv, SEQ ID NO: 36 (protein)
scFv: B6 scFv with H237S, A238R
modifications: ScFv
Complement inhibition activity compared to parental molecule Clone IV [10]: superior performance
Increase in the binding affinity to C3 and C3b compared to Clone IV ([6]; C3 and C3b): approximately 10 fold

B8: Clone IX: affinity maturation hit scFv, SEQ ID NO: 37 (protein)
scFv: B6 scFv with E96D
modifications: ScFv
Complement inhibition activity compared to parental molecule Clone IV [10]: comparable
Binding affinity to C3 and C3b compared to parental molecule Clone IV ([6]; C3 and C3b): comparable binding affinity
